Data on 2 proteins can be found in paper PMC3787751.

The term Km denotes the substrate concentration at which the rate is half of its maximum. For orientation: kcat means the maximal rate divided by the concentration of active sites.

Substrate in this data set: [O-][Cl+]O
As to the kind of experiment: purified protein. The note with it: 25 °C, pH 7.0.

B1: NwCld (Nitrobacter winogradskyi Nb-255) (protein)
chain: MTFTVFTGGDSGAWSILSVAPVIGESLMAASHLAIAPSLSLGDTSATTPWQLRGVASHARYVERAEKIALTSVQAGLGRNEATRAALIPIRKSAAWWEMTQDERRAIFEDKSHHIAASLKYLPAIARQLYHCRDIGEPFDFLTWFEYAPEHATMFEDLVGVLRATEEWTYVEREVDIRLARAI
Regarding B1, the Km worked out at 90 ± 12 µM and the kcat worked out at 190 ± 14 s⁻¹.

B2: NdCld (Nitrospira defluvii) (protein)
chain: ADREKLLTESGVYGTFATFQMDHDWWDLPGESRVISVAEVKGLVEQWSGKILVESYLLRGLSDHADLMFRVHARTLSDTQQFLSAFMGTRLGRHLTSGGLLHGVSKKPTYVAGFPESMKTELQVNGESGSRPYAIVIPIKKDAEWWALDQEARTALMQEHTQAALPYLKTVKRKLYHSTGLDDVDFITYFETERLEDFHNLVRALQQVKEFRHNRRFGHPTLLGTMSPLDEILEKFAQ
As for B2, the Michaelis-Menten constant (Km) turned out to be 58 ± 9 µM and the kcat is 35 ± 5 s⁻¹.
